Results: patent US20180110770A1, “FERROPTOSIS AND GLUTAMINOLYSIS INHIBITORS AND METHODS OF TREATMENT” (MEMORIAL SLOAN-KETTERING CANCER CENTER, priority 2015, published 2018)

B1: bovine holo-transferrin: commercial iron-bound bovine holo-transferrin (Sigma) (protein, UniProt Q29443 20-704, looked up)
Serotransferrin: DPERTVRWCTISTHEANKCASFRENVLRILESGPFVSCVKKTSHMDCIKAISNNEADAVTLDGGLVYEAGLKPNNLKPVVAEFHGTKDNPQTHYYAVAVVKKDTDFKLNELRGKKSCHTGLGRSAGWNIPMAKLYKELPDPQESIQRAAANFFSASCVPCADQSSFPKLCQLCAGKGTDKCACSNHEPYFGYSGAFKCLMEGAGDVAFVKHSTVFDNLPNPEDRKNYELLCGDNTRKSVDDYQECYLAMVPSHAVVARTVGGKEDVIWELLNHAQEHFGKDKPDNFQLFQSPHGKDLLFKDSADGFLKIPSKMDFELYLGYEYVTALQNLRESKPPDSSKDECMVKWCAIGHQERTKCDRWSGFSGGAIECETAENTEECIAKIMKGEADAMSLDGGYLYIAGKCGLVPVLAENYKTEGESCKNTPEKGYLAVAVVKTSDANINWNNLKDKKSCHTAVDRTAGWNIPMGLLYSKINNCKFDEFFSAGCAPGSPRNSSLCALCIGSEKGTGKECVPNSNERYYGYTGAFRCLVEKGDVAFVKDQTVIQNTDGNNNEAWAKNLKKENFEVLCKDGTRKPVTDAENCHLARGPNHAVVSRKDKATCVEKILNKQQDDFGKSVTDCTSNFCLFQSNSKDLLFRDDTKCLASIAKKTYDSYLGDDYVRAMTNLRQCSTSKLLEACTFHKP
modifications: iron-bound
B2: bovine apo-transferrin: iron-free bovine apo-transferrin (protein, UniProt Q29443 20-704, looked up)
Serotransferrin: DPERTVRWCTISTHEANKCASFRENVLRILESGPFVSCVKKTSHMDCIKAISNNEADAVTLDGGLVYEAGLKPNNLKPVVAEFHGTKDNPQTHYYAVAVVKKDTDFKLNELRGKKSCHTGLGRSAGWNIPMAKLYKELPDPQESIQRAAANFFSASCVPCADQSSFPKLCQLCAGKGTDKCACSNHEPYFGYSGAFKCLMEGAGDVAFVKHSTVFDNLPNPEDRKNYELLCGDNTRKSVDDYQECYLAMVPSHAVVARTVGGKEDVIWELLNHAQEHFGKDKPDNFQLFQSPHGKDLLFKDSADGFLKIPSKMDFELYLGYEYVTALQNLRESKPPDSSKDECMVKWCAIGHQERTKCDRWSGFSGGAIECETAENTEECIAKIMKGEADAMSLDGGYLYIAGKCGLVPVLAENYKTEGESCKNTPEKGYLAVAVVKTSDANINWNNLKDKKSCHTAVDRTAGWNIPMGLLYSKINNCKFDEFFSAGCAPGSPRNSSLCALCIGSEKGTGKECVPNSNERYYGYTGAFRCLVEKGDVAFVKDQTVIQNTDGNNNEAWAKNLKKENFEVLCKDGTRKPVTDAENCHLARGPNHAVVSRKDKATCVEKILNKQQDDFGKSVTDCTSNFCLFQSNSKDLLFRDDTKCLASIAKKTYDSYLGDDYVRAMTNLRQCSTSKLLEACTFHKP
modifications: iron-free

System: bax/bak-DKO MEFs
Assay: Death-inducing activity of transferrin and L-Gln under amino acid starvation
Format: cell-based, mouse
Conditions: with smFBS, 12 hrs
Experimental: To induce cell death, 80%-confluent cells were washed with PBS twice, and then cultured in amino acid-free medium, with specific factors added as indicated in individual experiments. Cell death was analyzed by propidium iodide (PI) staining coupled with microscopy or flow cytometry. Alternatively, cell viability was determined using the CellTiter-Glo luminescent Cell Viability Assay (Promega). In assays using WT MEFs, viability was calculated by normalizing ATP levels to cells treated with amino acid-starvation in the presence of 10% (v/v) diFBS, while in assays using bax/bak-DKO MEFs, ATP levels were normalized to cells treated with amino acid and FBS double starvation.

Row | Molecule | induction of cell death in the presence of smFBS
1 | B1 | induced robust cell death
2 | B2 | does not possess killing activity
